# ± gives the uncertainty stated by the source.
# Assay: abundance fitness (aPCA) (normalised: wild type 0, dead -1); higher = more abundant; growth selection in yeast, the domain comes from the species named
# Conditions: Homo sapiens
row,Substance,abundance fitness
1,"NEDD4-like E3 ubiquitin-protein ligase WWP2 Q442P, O00308",-0.067 ± 0.039
2,"NEDD4-like E3 ubiquitin-protein ligase WWP2 Q442S, O00308",0.008 ± 0.042
3,"NEDD4-like E3 ubiquitin-protein ligase WWP2 Q442T, O00308",0.048 ± 0.03
4,"NEDD4-like E3 ubiquitin-protein ligase WWP2 Q442V, O00308",0.093 ± 0.042
5,"NEDD4-like E3 ubiquitin-protein ligase WWP2 Q442W, O00308",-0.122 ± 0.072
6,"NEDD4-like E3 ubiquitin-protein ligase WWP2 Q442Y, O00308",0.033 ± 0.048
7,"NEDD4-like E3 ubiquitin-protein ligase WWP2 Q485A, O00308",-0.036 ± 0.039
8,"NEDD4-like E3 ubiquitin-protein ligase WWP2 Q485C, O00308",-0.071 ± 0.053
9,"NEDD4-like E3 ubiquitin-protein ligase WWP2 Q485D, O00308",-0.003 ± 0.053
10,"NEDD4-like E3 ubiquitin-protein ligase WWP2 Q485E, O00308",-0.034 ± 0.046
11,"NEDD4-like E3 ubiquitin-protein ligase WWP2 Q485F, O00308",-0.149 ± 0.075
12,"NEDD4-like E3 ubiquitin-protein ligase WWP2 Q485G, O00308",-0.004 ± 0.035
13,"NEDD4-like E3 ubiquitin-protein ligase WWP2 Q485L, O00308",-0.053 ± 0.035
14,"NEDD4-like E3 ubiquitin-protein ligase WWP2 Q485M, O00308",-0.038 ± 0.048
15,"NEDD4-like E3 ubiquitin-protein ligase WWP2 Q485N, O00308",0.095 ± 0.067
16,"NEDD4-like E3 ubiquitin-protein ligase WWP2 Q485P, O00308",-0.184 ± 0.068
17,"NEDD4-like E3 ubiquitin-protein ligase WWP2 Q485R, O00308",-0.028 ± 0.038
18,"NEDD4-like E3 ubiquitin-protein ligase WWP2 Q485S, O00308",-0.053 ± 0.046
19,"NEDD4-like E3 ubiquitin-protein ligase WWP2 Q485W, O00308",-0.149 ± 0.062
20,"NEDD4-like E3 ubiquitin-protein ligase WWP2 Q485Y, O00308",-0.126 ± 0.072
21,"NEDD4-like E3 ubiquitin-protein ligase WWP2 R460A, O00308",-0.072 ± 0.044
22,"NEDD4-like E3 ubiquitin-protein ligase WWP2 R460C, O00308",-0.277 ± 0.074

row,Substance,abundance fitness
1,"NEDD4-like E3 ubiquitin-protein ligase WWP2 R460D, O00308",-0.169 ± 0.083
2,"NEDD4-like E3 ubiquitin-protein ligase WWP2 R460E, O00308",-0.183 ± 0.063
3,"NEDD4-like E3 ubiquitin-protein ligase WWP2 R460F, O00308",-0.261 ± 0.065
4,"NEDD4-like E3 ubiquitin-protein ligase WWP2 R460G, O00308",-0.166 ± 0.041
5,"NEDD4-like E3 ubiquitin-protein ligase WWP2 R460H, O00308",-0.033 ± 0.081
6,"NEDD4-like E3 ubiquitin-protein ligase WWP2 R460I, O00308",-0.036 ± 0.074
7,"NEDD4-like E3 ubiquitin-protein ligase WWP2 R460K, O00308",-0.088 ± 0.064
8,"NEDD4-like E3 ubiquitin-protein ligase WWP2 R460L, O00308",-0.088 ± 0.036
9,"NEDD4-like E3 ubiquitin-protein ligase WWP2 R460N, O00308",-0.343 ± 0.073
10,"NEDD4-like E3 ubiquitin-protein ligase WWP2 R460P, O00308",-0.032 ± 0.06
11,"NEDD4-like E3 ubiquitin-protein ligase WWP2 R460Q, O00308",-0.104 ± 0.054
12,"NEDD4-like E3 ubiquitin-protein ligase WWP2 R460S, O00308",-0.153 ± 0.06
13,"NEDD4-like E3 ubiquitin-protein ligase WWP2 R460T, O00308",-0.032 ± 0.061
14,"NEDD4-like E3 ubiquitin-protein ligase WWP2 R460V, O00308",-0.137 ± 0.044
15,"NEDD4-like E3 ubiquitin-protein ligase WWP2 R460W, O00308",-0.413 ± 0.036
16,"NEDD4-like E3 ubiquitin-protein ligase WWP2 R460Y, O00308",-0.558 ± 0.12
17,"NEDD4-like E3 ubiquitin-protein ligase WWP2 R468A, O00308",-0.157 ± 0.035
18,"NEDD4-like E3 ubiquitin-protein ligase WWP2 R468C, O00308",-0.184 ± 0.06
19,"NEDD4-like E3 ubiquitin-protein ligase WWP2 R468D, O00308",-0.479 ± 0.06
20,"NEDD4-like E3 ubiquitin-protein ligase WWP2 R468E, O00308",-0.14 ± 0.039
21,"NEDD4-like E3 ubiquitin-protein ligase WWP2 R468G, O00308",-0.2 ± 0.033
22,"NEDD4-like E3 ubiquitin-protein ligase WWP2 R468H, O00308",-0.015 ± 0.08

row,Substance,abundance fitness
1,"NEDD4-like E3 ubiquitin-protein ligase WWP2 R468I, O00308",-0.51 ± 0.12
2,"NEDD4-like E3 ubiquitin-protein ligase WWP2 R468K, O00308",-0.071 ± 0.071
3,"NEDD4-like E3 ubiquitin-protein ligase WWP2 R468L, O00308",-0.191 ± 0.047
4,"NEDD4-like E3 ubiquitin-protein ligase WWP2 R468M, O00308",-0.11 ± 0.033
5,"NEDD4-like E3 ubiquitin-protein ligase WWP2 R468N, O00308",-0.208 ± 0.08
6,"NEDD4-like E3 ubiquitin-protein ligase WWP2 R468Q, O00308",-0.111 ± 0.066
7,"NEDD4-like E3 ubiquitin-protein ligase WWP2 R468S, O00308",-0.212 ± 0.053
8,"NEDD4-like E3 ubiquitin-protein ligase WWP2 R468T, O00308",-0.336 ± 0.069
9,"NEDD4-like E3 ubiquitin-protein ligase WWP2 R468V, O00308",-0.352 ± 0.036
10,"NEDD4-like E3 ubiquitin-protein ligase WWP2 R468W, O00308",-0.336 ± 0.066
11,"NEDD4-like E3 ubiquitin-protein ligase WWP2 R468Y, O00308",-0.251 ± 0.064
12,"NEDD4-like E3 ubiquitin-protein ligase WWP2 R476A, O00308",-0.291 ± 0.058
13,"NEDD4-like E3 ubiquitin-protein ligase WWP2 R476C, O00308",-0.198 ± 0.061
14,"NEDD4-like E3 ubiquitin-protein ligase WWP2 R476D, O00308",-0.297 ± 0.047
15,"NEDD4-like E3 ubiquitin-protein ligase WWP2 R476F, O00308",-0.505 ± 0.084
16,"NEDD4-like E3 ubiquitin-protein ligase WWP2 R476G, O00308",-0.206 ± 0.051
17,"NEDD4-like E3 ubiquitin-protein ligase WWP2 R476H, O00308",-0.4 ± 0.081
18,"NEDD4-like E3 ubiquitin-protein ligase WWP2 R476K, O00308",-0.248 ± 0.069
19,"NEDD4-like E3 ubiquitin-protein ligase WWP2 R476L, O00308",-0.202 ± 0.037
20,"NEDD4-like E3 ubiquitin-protein ligase WWP2 R476M, O00308",-0.324 ± 0.048
21,"NEDD4-like E3 ubiquitin-protein ligase WWP2 R476N, O00308",-0.186 ± 0.049
22,"NEDD4-like E3 ubiquitin-protein ligase WWP2 R476P, O00308",-0.188 ± 0.07

row,Substance,abundance fitness
1,"NEDD4-like E3 ubiquitin-protein ligase WWP2 R476Q, O00308",-0.406 ± 0.074
2,"NEDD4-like E3 ubiquitin-protein ligase WWP2 R476S, O00308",-0.271 ± 0.052
3,"NEDD4-like E3 ubiquitin-protein ligase WWP2 R476T, O00308",-0.075 ± 0.049
4,"NEDD4-like E3 ubiquitin-protein ligase WWP2 R476W, O00308",-0.294 ± 0.045
5,"NEDD4-like E3 ubiquitin-protein ligase WWP2 R476Y, O00308",-0.369 ± 0.05
6,"NEDD4-like E3 ubiquitin-protein ligase WWP2 R493A, O00308",-0.237 ± 0.12
7,"NEDD4-like E3 ubiquitin-protein ligase WWP2 R493C, O00308",-0.399 ± 0.12
8,"NEDD4-like E3 ubiquitin-protein ligase WWP2 R493E, O00308",-0.058 ± 0.063
9,"NEDD4-like E3 ubiquitin-protein ligase WWP2 R493F, O00308",0.299 ± 0.12
10,"NEDD4-like E3 ubiquitin-protein ligase WWP2 R493G, O00308",0.041 ± 0.064
11,"NEDD4-like E3 ubiquitin-protein ligase WWP2 R493H, O00308",0.065 ± 0.087
12,"NEDD4-like E3 ubiquitin-protein ligase WWP2 R493I, O00308",-0.502 ± 0.18
13,"NEDD4-like E3 ubiquitin-protein ligase WWP2 R493K, O00308",-0.022 ± 0.089
14,"NEDD4-like E3 ubiquitin-protein ligase WWP2 R493L, O00308",-0.088 ± 0.1
15,"NEDD4-like E3 ubiquitin-protein ligase WWP2 R493M, O00308",-0.083 ± 0.082
16,"NEDD4-like E3 ubiquitin-protein ligase WWP2 R493N, O00308",-0.666 ± 0.28
17,"NEDD4-like E3 ubiquitin-protein ligase WWP2 R493P, O00308",-0.006 ± 0.063
18,"NEDD4-like E3 ubiquitin-protein ligase WWP2 R493Q, O00308",0.132 ± 0.11
19,"NEDD4-like E3 ubiquitin-protein ligase WWP2 R493S, O00308",-0.201 ± 0.079
20,"NEDD4-like E3 ubiquitin-protein ligase WWP2 R493T, O00308",0.002 ± 0.056
21,"NEDD4-like E3 ubiquitin-protein ligase WWP2 R493V, O00308",-0.069 ± 0.037
22,"NEDD4-like E3 ubiquitin-protein ligase WWP2 R493W, O00308",-0.013 ± 0.071

# From the Human Domainome abundance scans (Beltran et al. 2025)
